{"source": "paper PMC10760972", "key": {"AURKB": {"target": "AURKB (UniProt Q96GD4)", "assay": "co-precipitation from cells, immunoblot", "conditions": "reference: NSFL1C wild type; sites S140"}}, "note": "Like-named read-outs stand apart in the source and are kept apart here.", "data": [{"substance": "AURKB: AURKB-3KR (K31R/K56R/K85R)", "values": [{"measurement": "enzymatic_activity", "setting": "ubiquitination at K31", "value": "decreases"}, {"measurement": "localisation_or_trafficking", "setting": "ubiquitination at K31", "value": "decreases"}, {"measurement": "enzymatic_activity", "setting": "ubiquitination at K56", "value": "decreases"}, {"measurement": "localisation_or_trafficking", "setting": "ubiquitination at K56", "value": "decreases"}, {"measurement": "enzymatic_activity", "setting": "ubiquitination at K85", "value": "decreases"}, {"measurement": "localisation_or_trafficking", "setting": "ubiquitination at K85", "value": "decreases"}]}, {"substance": "NSFL1C (from UniProt Q9UNZ2) NSFL1C-S140A", "values": [{"measurement": "binding against the reference", "setting": "AURKB", "value": "weaker"}]}, {"substance": "NSFL1C: NSFL1C-S140A", "values": [{"measurement": "other", "setting": "phosphorylation at S140", "value": "abolishes"}]}]}
